Results on 1 substance are retold here after US20250186597A1, “TARGETED IMMUNE ACTIVATION WITH IL-18 IMMUNOCYTOKINES” (BRIGHT PEAK THERAPEUTICS AG, priority 2023, published 2025).

Test [1] concerns the target T1, human Fc gamma receptors I (FcγRI/CD64) (Homo sapiens, UniProt P12314).
T1 construct: purchased R&D systems 1257-FC-050
As to the kind of experiment: Human FcγR binding ELISA, FcγRI/CD64 (Example 8). The settings on record: ELISA binding affinity. As to the method:
(§1) The interaction of the unmodified and of conjugated antibodies with human Fc gamma receptors I (FcγRI/CD64), with human Fc gamma receptors IIa (FcγRIIa/CD32a), with inhibitory human Fc gamma receptors IIb (FcγRIIb/CD32b), and with human Fc gamma receptors III FcγRIIIa/CD16 were measured by ELISA.
(§2) Briefly, Corning high-binding half-area plates (Fisher Scientific, Reinach, Switzerland) were coated overnight at 4° C. with 25 μl of unmodified and of conjugated anti-PD1 antibodies at 2.5 μg/ml in PBS. […] Plates surfaces were blocked with 25 μl of PBS-0.02% Tween20-1% BSA at 37° C. during 1 h. […] Twenty-five microliters of a 1/500 HRP-anti-His antibody in PBS—0.02% Tween20—0.1% BSA (R&D systems, anti-HIS—HRP Ab, #MAB050H) were added to each well and plates were incubated at Room Temperature during 1 h. […] ELISA signal was then measured at 450 nm on an EnSpire plate reader from Perkin Elmer (Schwerzenbach, Switzerland).

Test [2] concerns the target T2, human Fc gamma receptors IIb (FcγRIIb/CD32b) (Homo sapiens, UniProt P31994).
T2 construct: purchased R&D systems AVI1875-050
T2 sequence (P31994 43-310): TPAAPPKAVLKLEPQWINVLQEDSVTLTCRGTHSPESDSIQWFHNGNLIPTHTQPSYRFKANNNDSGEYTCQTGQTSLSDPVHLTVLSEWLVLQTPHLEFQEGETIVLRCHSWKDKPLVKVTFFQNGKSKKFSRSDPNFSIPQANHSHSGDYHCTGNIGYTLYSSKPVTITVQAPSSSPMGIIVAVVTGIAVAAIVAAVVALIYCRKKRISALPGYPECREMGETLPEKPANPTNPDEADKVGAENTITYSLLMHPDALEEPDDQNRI
As to the kind of experiment: Human FcγR binding ELISA, FcγRIIb/CD32b (Example 8). The settings on record: ELISA binding affinity. As to the method: as §1, §2

Test [3] addresses T3, human neonatal Fc receptor (FcRn) (Homo sapiens, UniProt P55899).
T3 construct: purchased Perkin Elmer AL3095C
As to the kind of experiment: Human FcRn binding AlphaLISA at pH 6 (Example 9). As to the method: The interaction of the unmodified and of conjugated anti-PD1 antibodies with the human neonatal Fc receptor (FcRn) at pH 6 was measured using the AlphaLISA® Human FcRn Binding Kit (AL3095C) from Perkin Elmer (Schwerzenbach, Switzerland). […] When reference IgG binds to FcRn, donor and acceptor beads come into proximity enabling the transfer of singlet oxygen that trigger a cascade of energy transfer reactions in the acceptor beads, resulting in a sharp peak of light emission at 615 nm. Addition of a free IgG antibodies into the AlphaLISA® mixture creates a competition for the binding of FcRn to the reference antibody resulting in a loss of signal.
After 90 min at 23° C. in the dark, AlphaLISA® signal was measured on an EnSpire plate reader (Excitation at 680 nm, Emission at 615 nm) from Perkin Elmer (Schwerzenbach, Switzerland).

For test [4], the target named is T4, human PD1 (Homo sapiens, UniProt Q15116).
T4 construct: purchased R&D #8986-PD
As to the kind of experiment: Binding kinetics to PD-1 by Bio-Layer Interferometry (Example 6). The settings on record: BLI, His-tagged human PD1. From the text: Based on Bio-Layer Interferometry (BLI), Octet® BLI systems enable real-time, label-free analysis for the determination of kinetics and affinity of a ligands to its receptor. Here anti-human IgG FC Capture (AHC) sensors are loaded with the test items (ICs). Sensors are first dipped into a kinetic buffer for baseline measurement, then into an analyte solution, here human PD1, to allow association and again into a buffer solution where the analyte is allowed to come off the ligand (dissociation). Several concentrations of analyte are run in parallel and enable the calculation of affinity parameters: Ka, Kd, KD.
Typically, first, the sensors are regenerated by 3 cycles of dipping into 10 mM glycine solution at pH=2 for 20 seconds, followed by 20 second kinetics buffer and a final 60 seconds in kinetics buffer to establish the initial signal (baseline). Second, the loading column will contain the ligand, here the unmodified PD-1 antibodies and of IL-18 polypeptide conjugated PD-1 antibody, at a fixed concentration determined in the loading scout experiment (20 ug/mL). Then another wash/baseline step allows non immobilized proteins to be washed away. […] After acquisition, the data is analyzed with Data Analysis Studio software (Sartorius). […] Group fitting is then applied to the data series and kinetics parameters are calculated.

Test [5] addresses T5, human Fc gamma receptors IIa (FcγRIIa/CD32a) (Homo sapiens, UniProt P12318).
T5 construct: purchased R&D systems 9595-CD-050
T5 sequence (P12318 34-317): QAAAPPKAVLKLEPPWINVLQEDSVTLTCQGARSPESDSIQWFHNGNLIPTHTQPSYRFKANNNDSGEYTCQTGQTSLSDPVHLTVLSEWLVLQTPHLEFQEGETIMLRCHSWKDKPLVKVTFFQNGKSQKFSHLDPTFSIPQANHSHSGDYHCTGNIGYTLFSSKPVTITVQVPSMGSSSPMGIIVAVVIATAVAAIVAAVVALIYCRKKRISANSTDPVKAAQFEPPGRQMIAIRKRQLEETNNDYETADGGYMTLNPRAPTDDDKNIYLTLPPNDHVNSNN
As to the kind of experiment: Human FcγR binding ELISA, FcγRIIa/CD32a (Example 8). The settings on record: ELISA binding affinity. As to the method: as §1, §2

The target in test [6] is T6, human PD-L1/B7-H1 (Homo sapiens, UniProt Q9NZQ7).
T6 construct: purchased ACROBiosystems PD1-H82E5-25UG
Nature of the test: PD-L1 binding ELISA assay (Example 5). The settings on record: biotinylated human PD-L1. As to the method:
The interaction of the unmodified antibodies and corresponding IL-18 immunocytokines with relevant immune cell associated antigen are measured by ELISA assay. For these studies, Corning high-binding half-area plates (Fisher Scientific, Reinach, Switzerland) are coated overnight at 4° C. with 25 μl of unmodified antibodies corresponding IL-18 immunocytokines at […] in PBS. […] Plate surfaces are blocked with 25 μl of PBS-0.02% Tween20-1% BSA at 37° C. during 1 h. […] ELISA signal is then measured at 450 nm on an ENSPIRE® plate reader from Perkin Elmer (Schwerzenbach, Switzerland).

Test [7] deals with T7, human Fc gamma receptors III FcγRIIIa/CD16 (Homo sapiens, UniProt P08637).
T7 construct: purchased R&D systems 4325-FC-050
Nature of the test: Human FcγR binding ELISA, FcγRIIIa/CD16 (Example 8). The settings on record: ELISA binding affinity. The procedure:
as §1, §2

T4 sequence (Q15116 25-288): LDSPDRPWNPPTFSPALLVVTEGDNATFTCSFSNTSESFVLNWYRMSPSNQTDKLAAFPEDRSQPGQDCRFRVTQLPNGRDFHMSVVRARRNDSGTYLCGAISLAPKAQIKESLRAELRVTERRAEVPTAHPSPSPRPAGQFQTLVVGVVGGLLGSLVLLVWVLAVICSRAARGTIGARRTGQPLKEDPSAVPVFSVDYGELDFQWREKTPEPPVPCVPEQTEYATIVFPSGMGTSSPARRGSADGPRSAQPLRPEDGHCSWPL
T7 sequence (P08637 17-254): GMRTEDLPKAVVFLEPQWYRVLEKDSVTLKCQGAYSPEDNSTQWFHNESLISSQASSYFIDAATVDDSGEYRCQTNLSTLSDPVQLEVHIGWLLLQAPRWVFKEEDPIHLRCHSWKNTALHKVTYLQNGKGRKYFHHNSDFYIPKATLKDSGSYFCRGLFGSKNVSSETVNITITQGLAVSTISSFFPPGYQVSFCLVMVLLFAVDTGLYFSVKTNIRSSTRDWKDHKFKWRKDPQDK
T1 sequence (P12314 16-374): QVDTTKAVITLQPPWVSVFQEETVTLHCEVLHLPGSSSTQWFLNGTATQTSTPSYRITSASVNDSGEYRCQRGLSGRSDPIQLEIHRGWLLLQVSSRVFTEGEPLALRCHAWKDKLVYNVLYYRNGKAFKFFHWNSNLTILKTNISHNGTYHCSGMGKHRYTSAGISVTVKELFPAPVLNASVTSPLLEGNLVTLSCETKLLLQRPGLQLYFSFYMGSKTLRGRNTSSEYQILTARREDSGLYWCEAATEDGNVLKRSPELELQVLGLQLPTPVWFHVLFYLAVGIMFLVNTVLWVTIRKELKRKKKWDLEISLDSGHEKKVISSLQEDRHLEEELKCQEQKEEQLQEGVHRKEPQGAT
T3 sequence (P55899 24-297 limits assumed): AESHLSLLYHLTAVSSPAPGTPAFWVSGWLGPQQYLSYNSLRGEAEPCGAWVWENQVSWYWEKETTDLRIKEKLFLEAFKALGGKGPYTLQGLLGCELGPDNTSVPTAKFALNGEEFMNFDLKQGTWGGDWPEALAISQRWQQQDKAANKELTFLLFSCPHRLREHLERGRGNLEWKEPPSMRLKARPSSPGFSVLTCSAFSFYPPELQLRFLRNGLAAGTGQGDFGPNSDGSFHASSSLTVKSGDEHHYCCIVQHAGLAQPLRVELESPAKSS
T3 sequence (P61769 21-119 partner): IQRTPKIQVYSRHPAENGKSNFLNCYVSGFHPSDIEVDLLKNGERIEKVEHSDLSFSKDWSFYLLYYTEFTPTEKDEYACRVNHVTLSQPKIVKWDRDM
T6 sequence (Q9NZQ7 19-290): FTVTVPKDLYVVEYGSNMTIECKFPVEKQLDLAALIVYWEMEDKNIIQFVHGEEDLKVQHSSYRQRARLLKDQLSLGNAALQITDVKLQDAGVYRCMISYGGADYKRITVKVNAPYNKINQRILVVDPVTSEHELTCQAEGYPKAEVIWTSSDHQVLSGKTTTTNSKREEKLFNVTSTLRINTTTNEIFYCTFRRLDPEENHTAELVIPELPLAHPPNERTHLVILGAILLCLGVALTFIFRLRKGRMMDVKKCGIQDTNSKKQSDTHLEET

In the case of “LZM-009: anti-PD-1 antibody, VH SEQ ID NO: 376, VL SEQ ID NO: 377 [reference compound]”, the Kd in test [1] was 0.315 nM; in test [2], 2630 nM; in test [3] it was 6 nM; in test [5], 1350 nM; in test [6], > 100 nM; in test [7], 1710 nM. Moreover, the ka in test [4] is 342000 M⁻¹ s⁻¹. In addition, the kd in test [4] is 0.0077 s⁻¹.
